In assay [1] the test system is PNAG conjugates on the array (dPNAG, PNAG and intermediate levels of deacetylation). Nature of the assay: Neoglycoprotein (glycan) microarray binding, 816-component array. The following applies: ability to bind both dPNAG and PNAG and intermediate levels of deacetylation.
Assay [2] deals with PNAG 0 (fully deacetylated glucosamine pentasaccharide conjugate). The assay is described as follows: Glycan microarray binding / apparent KD. Particulars: fully deacetylated PNAG conjugate PNAG 0. The method, then:
(§1) Neoglycoprotein (NGP) microarray fabrication was performed as follows. Several NGP microarrays were constructed as previously described. Two large arrays (8 duplicate arrays per slide) composed of 815 and 870 neoglycoproteins, glycoproteins, glycopeptide conjugates, and controls were constructed and used for the experiments in this report. Additionally, a PNAG-focused array (16 duplicates per slide) with 49 array components was fabricated and used to determine apparent KD values. Array component parent stocks were diluted to 125-200 μg/mL into print buffer (1×PBS buffer with 2.5% (v/v) glycerol, 0.0005% (v/v) Triton-X 100, 0.0005 μg/mL soluble print dye 0.05 μg/mL Atto 532 (Sigma 06699). Formulated components were printed in duplicate onto 2D-Epoxy functionalized glass slides (Poly-An #104-00-221) or SuperEpoxy 2 microarray slides (ArrayIt) using an Arrayit NanoPrint LM60 arrayer at 60% humidity. Following the print, slides were scanned in a microarray fluorescence scanner (Innopsys, InnoScan 1100 AL) to validate that array components were successfully deposited onto the slide surface. Binding profiles for a representative set of lectins and antibodies were used as QC for each printed microarray batch. The printed NGP microarrays were stored under vacuum at −20° C.
(§2) Antibody selectivity and apparent KD were determined using a NGP microarray. A pre-assay scan was performed to control for missing features. Selectivity and affinity of most mAbs were measured on the full array. A focused array was used to acquire an apparent KD measurement. A slide module (8 well for full array and 16-well for focused array) was mounted onto each slide and blocking buffer (3% BSA in PBS, pH 7.4) was applied to each well of the array. Blocking was performed overnight at 4° C. mAbs were serial diluted in binding buffer (1% BSA in PBST, pH 7.4). Following the block, wells were washed 4× with wash buffer (PBST, PBS with 0.05% tween-20). Primary mAb incubation was performed for 2.5 hours at 37° C. The wells were washed 5× with wash buffer. A CY3-labeled secondary antibody specific for the Fc portion of human IgG was diluted 500 fold into binding buffer and added to each array well (Jackson ImmunoResearch, 109-165-098). Secondary mAb incubation was performed for 1.5 hours at 37° C. Wells were washed 5× with wash buffer. Slides were removed from the slide module and submerged in wash buffer for 5 minutes. Washed slides were dried by centrifugation @ 1000×g in a centrifuge quipped with a swing bucket rotor. Fluorescent scans were obtained at multiple PMT values to maximize dynamic range. Raw data was analyzed using GenePix 7.0 software as previously described. Selectivity profiles and apparent KD curves were plotted in excel and Graphpad Prism. Apparent Kos were determined using one-site specific binding algorithm in Graphpad Prism.

In assay [3] the test system is PNAG conjugates on the array (dPNAG, PNAG and intermediate levels of deacetylation). Nature of the assay: Neoglycoprotein (glycan) microarray binding, 816-component array. Particulars: single point mutations. The method, then:
as §1, §2

B1: TG10 W38A: TG10 HC W38A (SEQ ID NO: 47) with TG10 LC (SEQ ID NO: 12) (antibody, V domains shown)
VH: EVQLVESGGGLVQPGGSLRLSCAVSGFPFSSYAMSWVRQAPGKGLEWVANIKEDGSEKYYVDSVKGRFTISRDNAKNSLYLQMNSLRAEDTAVYYCATDPDVGLSDSWGQGTLVTVSS
VL: EIVLTQSPGTLSLSPGDRATHSCRASQSVSRSYLAWYQQKPGQTPRLFIYGASNRATGIPDRFSGSGSGTYFTLTISRLEPEDFAVYYCQQYDSAPDTFGQGTRLEIK
modifications: Site directed mutatation of TG10 HC Variable Region; TG10 Light Chain Variable Region
Regarding B1, the “PNAG Binding on Array” value in assay [1] is listed as “No”. In addition, the “effect of single point mutation on binding between TG10 and PNAG 0” value (shortened to “effect of single point mutation”) in assay [2] is reported as “completely removed binding”. In addition, the “function of TG10 variant (binding to PNAG conjugates on the array)” value (shortened to “function of TG10 variant”) in assay [3] is listed as “functionally dead”.

B2: 120 × TG: 1467120 HC (SEQ ID NO: 45) with TG10 LC (SEQ ID NO: 12) (antibody, V domains shown)
VH: QVQLVESGGGLVQPGGSLRLSCAASGFTFSSYWMSWVRQAPGKGLEWVANIKQDGSEKYYVDSVKGRFTISRDNAKNSLYLQMNSLRAEDTAVYYCARDPEGGLPDYWGQGTLVTVSS
VL: EIVLTQSPGTLSLSPGDRATHSCRASQSVSRSYLAWYQQKPGQTPRLFIYGASNRATGIPDRFSGSGSGTYFTLTISRLEPEDFAVYYCQQYDSAPDTFGQGTRLEIK
modifications: Based on an antibody sequence.; TG10 Light Chain Variable Region
On to B2, for which, in assay [1], the “PNAG Binding on Array” value is “No”.

B3: TG10 Y66A: TG10 HC Y66A (SEQ ID NO: 38) with TG10 LC (SEQ ID NO: 12) (antibody, V domains shown)
VH: EVQLVESGGGLVQPGGSLRLSCAVSGFPFSSYWMSWVRQAPGKGLEWVANIKEDGSEKAYVDSVKGRFTISRDNAKNSLYLQMNSLRAEDTAVYYCATDPDVGLSDSWGQGTLVTVSS
VL: EIVLTQSPGTLSLSPGDRATHSCRASQSVSRSYLAWYQQKPGQTPRLFIYGASNRATGIPDRFSGSGSGTYFTLTISRLEPEDFAVYYCQQYDSAPDTFGQGTRLEIK
modifications: Site directed mutation of TG10 HC Variable Region; TG10 Light Chain Variable Region
Take B3: the “PNAG Binding on Array” value in assay [1] is recorded as “Yes”.

B4: 285 × TG: 4488285 HC (SEQ ID NO: 46) with TG10 LC (SEQ ID NO: 12) (antibody, V domains shown)
VH: EVQLVESGGGLVQPGGSLRLSCAASGFTFSSYWMSWVRQAPGKGLEWVANIKQDGSEKYYVDSVKGRFTISRDNAKNSLYLQMNSLRAEDTAVYYCARDPYMGLIDYWGQGTLVTVSS
VL: EIVLTQSPGTLSLSPGDRATHSCRASQSVSRSYLAWYQQKPGQTPRLFIYGASNRATGIPDRFSGSGSGTYFTLTISRLEPEDFAVYYCQQYDSAPDTFGQGTRLEIK
modifications: Based on an antibody sequence.; TG10 Light Chain Variable Region
In the case of B4, the “PNAG Binding on Array” value in assay [1] is “No”.

B5: TG10 D107A: TG10 HC D107A (SEQ ID NO: 41) with TG10 LC (SEQ ID NO: 12) (antibody, V domains shown)
VH: EVQLVESGGGLVQPGGSLRLSCAVSGFPFSSYWMSWVRQAPGKGLEWVANIKEDGSEKYYVDSVKGRFTISRDNAKNSLYLQMNSLRAEDTAVYYCATAPDVGLSDSWGQGTLVTVSS
VL: EIVLTQSPGTLSLSPGDRATHSCRASQSVSRSYLAWYQQKPGQTPRLFIYGASNRATGIPDRFSGSGSGTYFTLTISRLEPEDFAVYYCQQYDSAPDTFGQGTRLEIK
modifications: Site directed mutation of TG10 HC Variable Region; TG10 Light Chain Variable Region
For the molecule B5, the “effect of single point mutation” value in assay [2] is “completely removed binding”. For the same molecule, the “function of TG10 variant” value in assay [3] is “functionally dead”.

B6: TG10 E57A: TG10 HC E57A (SEQ ID NO: 37) with TG10 LC (SEQ ID NO: 12) (antibody, V domains shown)
VH: EVQLVESGGGLVQPGGSLRLSCAVSGFPFSSYWMSWVRQAPGKGLEWVANIKADGSEKYYVDSVKGRFTISRDNAKNSLYLQMNSLRAEDTAVYYCATDPDVGLSDSWGQGTLVTVSS
VL: EIVLTQSPGTLSLSPGDRATHSCRASQSVSRSYLAWYQQKPGQTPRLFIYGASNRATGIPDRFSGSGSGTYFTLTISRLEPEDFAVYYCQQYDSAPDTFGQGTRLEIK
modifications: Site directed mutation of TG10 HC Variable Region; TG10 Light Chain Variable Region
B6: the “PNAG Binding on Array” value in assay [1] was “Yes”. Besides, the “effect of single point mutation” value in assay [2] is recorded as “greatly reduce”.

B7: 729 × TG: 15729 HC (SEQ ID NO: 44) with TG10 LC (SEQ ID NO: 12) (antibody, V domains shown)
VH: EVQLVESGGGLVQPGGSLRLSCAASGFTFSSYWMSWVRQAPGKGLEWVANIKQDGSEKYYVDSVKGRFTISRDNAKNSLYLQMNSLRAEDTAVYYCARDPDGRIFDYWGQGTLVTVSS
VL: EIVLTQSPGTLSLSPGDRATHSCRASQSVSRSYLAWYQQKPGQTPRLFIYGASNRATGIPDRFSGSGSGTYFTLTISRLEPEDFAVYYCQQYDSAPDTFGQGTRLEIK
modifications: Based on an antibody sequence.; TG10 Light Chain Variable Region
For B7, the “PNAG Binding on Array” value in assay [1] is given as “No”.

B8: TG10 LC Y38A: TG10 HC (SEQ ID NO: 3) with TG10 LC Y38A (SEQ ID NO: 43) (antibody, V domains shown)
VH: EVQLVESGGGLVQPGGSLRLSCAVSGFPFSSYWMSWVRQAPGKGLEWVANIKEDGSEKYYVDSVKGRFTISRDNAKNSLYLQMNSLRAEDTAVYYCATDPDVGLSDSWGQGTLVTVSS
VL: EIVLTQSPGTLSLSPGDRATHSCRASQSVSRSALAWYQQKPGQTPRLFIYGASNRATGIPDRFSGSGSGTYFTLTISRLEPEDFAVYYCQQYDSAPDTFGQGTRLEIKLC
modifications: TG10 Heavy Chain Variable Region; Site directed mutation of TG10 LC Variable Region
On to B8, for which the “effect of single point mutation” value in assay [2] was “completely removed binding”. Also, in assay [3], the “function of TG10 variant” value is “functionally dead”.

B9: TG10 D109K: TG10 HC D109K (SEQ ID NO: 48) with TG10 LC (SEQ ID NO: 12) (antibody, V domains shown)
VH: EVQLVESGGGLVQPGGSLRLSCAVSGFPFSSYWMSWVRQAPGKGLEWVANIKEDGSEKYYVDSVKGRFTISRDNAKNSLYLQMNSLRAEDTAVYYCATDPKVGLSDSWGQGTLVTVSS
VL: EIVLTQSPGTLSLSPGDRATHSCRASQSVSRSYLAWYQQKPGQTPRLFIYGASNRATGIPDRFSGSGSGTYFTLTISRLEPEDFAVYYCQQYDSAPDTFGQGTRLEIK
modifications: Site directed mutatation of TG10 HC Variable Region; TG10 Light Chain Variable Region
With B9, the “PNAG Binding on Array” value in assay [1] is given as “No”. For the same molecule, in assay [2], the “effect of single point mutation” value is recorded as “completely removed binding”. In addition, in assay [3], the “function of TG10 variant” value is given as “functionally dead”.

B10: TG10 D109A: TG10 HC D109A (SEQ ID NO: 42) with TG10 LC (SEQ ID NO: 12) (antibody, V domains shown)
VH: EVQLVESGGGLVQPGGSLRLSCAVSGFPFSSYWMSWVRQAPGKGLEWVANIKEDGSEKYYVDSVKGRFTISRDNAKNSLYLQMNSLRAEDTAVYYCATDPAVGLSDSWGQGTLVTVSS
VL: EIVLTQSPGTLSLSPGDRATHSCRASQSVSRSYLAWYQQKPGQTPRLFIYGASNRATGIPDRFSGSGSGTYFTLTISRLEPEDFAVYYCQQYDSAPDTFGQGTRLEIK
modifications: Site directed mutatation of TG10 HC Variable Region; TG10 Light Chain Variable Region
With B10, the “effect of single point mutation” value in assay [2] is reported as “greatly reduce”.

Values taken from patent US20260015434A1, “ANTIBODY MATERIALS AND METHODS TARGETING MICROBIAL POLYSACCHARIDES” (priority 2022, published 2026).
